Consider one molecule from patent US20250092426, “CAS ENDONUCLEASES AND RELATED METHODS” (Flagship Pioneering Innovations VII, LLC, published 2025).

The data set has as its target T1, CasEnd-7 (synthetic construct).
T1 chain: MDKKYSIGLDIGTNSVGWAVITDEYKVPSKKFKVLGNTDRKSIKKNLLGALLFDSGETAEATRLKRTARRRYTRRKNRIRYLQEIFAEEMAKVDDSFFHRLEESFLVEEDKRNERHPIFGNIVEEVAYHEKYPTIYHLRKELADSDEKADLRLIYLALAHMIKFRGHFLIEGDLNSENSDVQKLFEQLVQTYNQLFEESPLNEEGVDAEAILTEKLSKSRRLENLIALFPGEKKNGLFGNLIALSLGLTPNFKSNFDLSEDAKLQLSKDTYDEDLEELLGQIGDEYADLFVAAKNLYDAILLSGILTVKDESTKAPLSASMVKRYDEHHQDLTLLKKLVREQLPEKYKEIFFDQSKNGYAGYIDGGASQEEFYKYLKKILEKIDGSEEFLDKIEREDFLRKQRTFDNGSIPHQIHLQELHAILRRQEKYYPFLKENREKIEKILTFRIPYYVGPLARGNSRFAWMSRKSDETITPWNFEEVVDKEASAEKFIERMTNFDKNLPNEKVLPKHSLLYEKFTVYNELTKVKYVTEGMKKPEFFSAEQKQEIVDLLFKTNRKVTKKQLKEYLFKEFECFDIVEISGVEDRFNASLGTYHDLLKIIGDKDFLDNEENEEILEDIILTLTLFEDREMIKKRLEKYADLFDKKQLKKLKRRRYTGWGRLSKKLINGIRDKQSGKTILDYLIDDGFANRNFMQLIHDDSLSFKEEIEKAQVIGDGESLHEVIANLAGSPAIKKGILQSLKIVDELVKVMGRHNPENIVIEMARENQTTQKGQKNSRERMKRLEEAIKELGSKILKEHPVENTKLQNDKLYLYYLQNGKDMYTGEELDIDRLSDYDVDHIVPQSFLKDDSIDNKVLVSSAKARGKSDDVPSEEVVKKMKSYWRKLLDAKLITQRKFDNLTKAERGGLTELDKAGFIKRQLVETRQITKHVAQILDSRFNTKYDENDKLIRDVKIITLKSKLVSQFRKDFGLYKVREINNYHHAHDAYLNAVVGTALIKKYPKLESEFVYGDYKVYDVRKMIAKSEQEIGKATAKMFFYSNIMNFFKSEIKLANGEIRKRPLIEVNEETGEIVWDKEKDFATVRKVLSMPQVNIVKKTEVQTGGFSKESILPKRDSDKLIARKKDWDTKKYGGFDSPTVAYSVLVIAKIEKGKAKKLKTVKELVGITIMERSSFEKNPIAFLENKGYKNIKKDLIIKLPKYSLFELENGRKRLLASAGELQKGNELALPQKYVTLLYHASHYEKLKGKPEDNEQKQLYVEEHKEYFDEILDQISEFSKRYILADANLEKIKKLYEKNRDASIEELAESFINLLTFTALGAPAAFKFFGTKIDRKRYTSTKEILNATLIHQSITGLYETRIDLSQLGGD
The data set is described as follows: cell_activity; +++; HEK293T; PAM not stated. Put shortly:
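BFP-to-GFP conversion via reverse transcriptase fusion with each Cas endonuclease plus template RNA: 200 ng of each plasmid nucleofected into 250,000 BFP-expressing HEK293T cells (program DS-150). Percent GFP+ cells by flow cytometry at day 4 measured editing.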

B1: BFP-to-GFP template RNA ; BFP reporter protospacer (ssRNA ; dsDNA)
RNA: GCCGAAGCACUGCACGCCGUGUUUUAGAGCUAGAAAUAGCAAGUUAAAAUAAGGCUAGUCCGUUAUCAACUUGAAAAAGUGGCACCGAGUCGGUGCACCCUGACGUACGGCGUGCAGUGCUU
DNA 1: GCCGAAGCACTGCACGCCGT
DNA 2: ACGGCGTGCAGTGCTTCGGC
Consider B1, for which the activity was ≥ 100 % of reference.
